Assay [1] has as its target mCherry-BICD2N-EGFR (Ex19Del/T790M/C797S)-HomoFC. Description: split reporter.
The target is the same in assay [2].
Assay [3] addresses mCherry-EGFR (L858R/T790M)-HomoFC (UniProt P00533). Description: split reporter.

With “mCherry-BICD2N-EGFR (Ex19Del/T790M/C797S)-HomoFC (from UniProt Q8TD16;P00533) (receptor)”, in assay [1], the HomoFC/mCherry ratio (EGF) came to 0.12, the fold lower oligomer signal than WT EGFR at the basal level worked out at 3.3 fold and the fold reduction of the oligomer signal against the nonfused mutant turned out to be 18.8 fold. The C/N ERK-KTR ratio after EGF stimulation in assay [2] is 0.64.

Turning to “YFP–DARPin (E69)–BICD2N (from UniProt Q8TD16 1-594) (designed binder)”, the percent reduction of EGFR oligomerization (HomoFC) in assay [3] is 50%.

For the origin of these results see article PMC12680046.
